Assay results taken from patent US20150157741A1 (published 2015).
Ends that are not written are not given here.

Biological target: T1, Recombinant Human ErbB2/Fc Chimera (produced by R&D Systems) (human, UniProt P04626 23-652)
T1 construct: Bought reagent; Immobilised by amine coupling on a GLM chip, about 3,000 RU; also called HER2; Fc part of the bought chimera not given
Test: SPR (ProteOn XPR36), ErbB2/Fc amine-coupled on GLM chip, conjugate injected, 1:1 Langmuir fit
Method: The bonding property of the PEG including the capture molecule to HER2 serving as a target molecule was evaluated by a surface plasmon resonance method (SPR). In SPR, the measurement was performed using Proteon (registered trademark) XPR36 (produced by Bio-Rad Laboratories). Recombinant Human ErbB2/Fc Chimera (produced by R&D Systems) was dissolved into an acetate buffer (pH 5.0), and was immobilized by amine coupling to a carboxyl group on the GLM sensor chip surface. The amount of immobilization was about 3,000 RU (Resonance Unit). Subsequently, the PEG including the capture molecule was diluted to various concentrations with a phosphate buffer (pH 7.4) containing 0.005% of Tween20 and was injected into a flow cell at a flow rate of 50 microliters/min. As for the measurement times, an injection time (bonding) was 120 seconds and an elapsed time after stopping of injection (dissociation) was 120 seconds. In a bonding kinetic analysis experiment, sensor grams were analyzed using 1:1 Langmuir fitting model. The bonding property to HER2 was ensured with respect to every sample. In particular, strong bonding property was ensured with respect to scFv-PEG40, Af-PEG20, and Af-PEG40.

| Kd [µM] | Binder |
| --- | --- |
| 2.6 | MARSGLGGKGSC(PEG ME‑200MA) (also: ICG-Sulfo-OSu conjugated, site not given here, Conjugate with PEG 20k and ICG) [pe-PEG20 (PEG ME-200MA modified with ICG and the HER2-binding peptide of Sequence No. 3)] |
| 3.1 | MARSGLGGKGSC(PEG ME‑400MA) (also: ICG-Sulfo-OSu conjugated, site not given here, Conjugate with PEG 40k and ICG) [pe-PEG40 (PEG ME-400MA modified with ICG and the HER2-binding peptide of Sequence No. 3)] |
